Experimental data from paper PMC10548395.

Target: IQ∼Sec7PH fusion protein of IQSEC3 (not stated (human or rat cDNA cloned)) (UniProt Q9UPP2)
Assay: ITC

Sequence of UniProt Q9UPP2 (Q9UPP2 whole entry, looked up, the tested form may be a part): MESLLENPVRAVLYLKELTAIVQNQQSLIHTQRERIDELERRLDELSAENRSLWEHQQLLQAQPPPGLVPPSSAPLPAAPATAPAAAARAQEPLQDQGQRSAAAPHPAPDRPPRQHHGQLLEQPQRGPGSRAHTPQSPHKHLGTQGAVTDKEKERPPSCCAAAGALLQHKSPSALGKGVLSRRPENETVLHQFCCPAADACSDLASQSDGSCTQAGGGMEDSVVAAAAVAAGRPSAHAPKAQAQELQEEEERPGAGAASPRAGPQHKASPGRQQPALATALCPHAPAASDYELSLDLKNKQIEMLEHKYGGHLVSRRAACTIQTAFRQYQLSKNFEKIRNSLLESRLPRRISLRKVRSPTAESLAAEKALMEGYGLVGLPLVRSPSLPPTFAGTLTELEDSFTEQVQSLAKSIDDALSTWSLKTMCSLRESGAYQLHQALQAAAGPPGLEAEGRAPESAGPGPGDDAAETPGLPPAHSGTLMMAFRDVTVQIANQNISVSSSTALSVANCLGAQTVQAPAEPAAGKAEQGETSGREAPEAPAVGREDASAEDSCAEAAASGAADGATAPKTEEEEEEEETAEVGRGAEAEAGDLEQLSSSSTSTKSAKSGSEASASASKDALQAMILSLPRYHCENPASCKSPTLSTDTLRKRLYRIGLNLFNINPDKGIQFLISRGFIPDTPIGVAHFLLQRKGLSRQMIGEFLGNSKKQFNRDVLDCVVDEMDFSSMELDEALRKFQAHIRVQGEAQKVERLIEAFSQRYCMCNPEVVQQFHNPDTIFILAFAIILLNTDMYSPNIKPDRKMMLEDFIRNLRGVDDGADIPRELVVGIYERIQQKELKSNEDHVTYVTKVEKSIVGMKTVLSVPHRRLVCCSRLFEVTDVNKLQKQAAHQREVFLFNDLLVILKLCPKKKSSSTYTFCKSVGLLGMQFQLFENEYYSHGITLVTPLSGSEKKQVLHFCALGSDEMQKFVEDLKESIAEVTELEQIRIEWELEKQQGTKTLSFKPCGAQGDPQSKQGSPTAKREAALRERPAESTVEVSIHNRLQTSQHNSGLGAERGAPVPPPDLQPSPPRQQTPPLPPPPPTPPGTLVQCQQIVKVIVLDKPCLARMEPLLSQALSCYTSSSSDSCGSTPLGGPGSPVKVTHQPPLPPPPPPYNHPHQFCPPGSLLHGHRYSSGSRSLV

- Kd: 1 nM
Substance: calmodulin (CaM) (from UniProt P0DP25 2-149) (natural protein)
